According to publication PMC5727443:

Target: hypoxia-inducible factor 2α (HIF-2α), wild type (UniProt Q99814)
Assay: co-IP

Chain of UniProt Q99814 (Q99814 whole entry): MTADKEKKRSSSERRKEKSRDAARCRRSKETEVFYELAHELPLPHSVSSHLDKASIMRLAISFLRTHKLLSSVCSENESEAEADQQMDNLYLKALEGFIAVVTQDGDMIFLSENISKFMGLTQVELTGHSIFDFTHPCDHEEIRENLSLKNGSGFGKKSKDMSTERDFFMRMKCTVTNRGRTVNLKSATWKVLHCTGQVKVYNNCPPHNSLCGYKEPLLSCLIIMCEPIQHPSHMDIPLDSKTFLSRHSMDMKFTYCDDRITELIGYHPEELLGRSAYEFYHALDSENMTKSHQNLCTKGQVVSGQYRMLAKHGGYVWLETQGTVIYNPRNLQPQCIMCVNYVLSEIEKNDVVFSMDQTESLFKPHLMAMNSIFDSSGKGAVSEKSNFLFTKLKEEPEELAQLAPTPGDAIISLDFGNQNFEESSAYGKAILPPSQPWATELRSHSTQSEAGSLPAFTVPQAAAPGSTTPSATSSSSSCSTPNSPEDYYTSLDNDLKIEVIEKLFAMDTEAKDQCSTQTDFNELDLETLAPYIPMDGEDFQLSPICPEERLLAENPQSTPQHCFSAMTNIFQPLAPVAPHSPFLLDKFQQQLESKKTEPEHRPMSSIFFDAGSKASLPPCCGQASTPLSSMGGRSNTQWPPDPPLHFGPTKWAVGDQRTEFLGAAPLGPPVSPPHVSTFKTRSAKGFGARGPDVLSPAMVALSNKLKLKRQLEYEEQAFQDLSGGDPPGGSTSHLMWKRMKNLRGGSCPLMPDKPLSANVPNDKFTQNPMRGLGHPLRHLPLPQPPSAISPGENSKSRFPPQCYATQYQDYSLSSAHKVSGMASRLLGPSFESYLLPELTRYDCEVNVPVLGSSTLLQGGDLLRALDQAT

mouse Tet1 (wild type, whole) (enzyme)
PHD2 bound to HIF-2α with Tet1 co-expressed, fold of without Tet1: 0.47 fold | pVHL bound to HIF-2α with Tet1 over-expressed, fold of without Tet1: 0.7 fold
